Data: ChEMBL document CHEMBL3769311, “The natural flavone fukugetin as a mixed-type inhibitor for human tissue kallikreins” (Bioorg Med Chem Lett, 2016)

Legend:
[1] = substrate: O=C1CC(c2ccc(O)c(O)c2)Oc2c1c(O)cc(O)c2[C@@H]1C(=O)c2c(O)cc(O)cc2O[C@H]1c1ccc(O)cc1; details: Homo sapiens; 8 uM
Description: Mixed-type inhibition of human tissue kallikrein-2 expressed in baculovirus infected insect cells using Abz-KLRSSQ-EDDnp as substrate assessed as substrate Km at 8 uM by Lineweaver-Burk plot analysis

[2] = substrate: O=C1CC(c2ccc(O)c(O)c2)Oc2c1c(O)cc(O)c2[C@@H]1C(=O)c2c(O)cc(O)cc2O[C@H]1c1ccc(O)cc1; details: Homo sapiens; 10 uM
Description: Mixed-type inhibition of human tissue kallikrein-2 expressed in baculovirus infected insect cells using Abz-KLRSSQ-EDDnp as substrate assessed as substrate Km at 10 uM by Lineweaver-Burk plot analysis

[3] = substrate: O=C1CC(c2ccc(O)c(O)c2)Oc2c1c(O)cc(O)c2[C@@H]1C(=O)c2c(O)cc(O)cc2O[C@H]1c1ccc(O)cc1; details: Homo sapiens; 2 uM
[4] = substrate: O=C1CC(c2ccc(O)c(O)c2)Oc2c1c(O)cc(O)c2[C@@H]1C(=O)c2c(O)cc(O)cc2O[C@H]1c1ccc(O)cc1; details: Homo sapiens; 4 uM
Description: Mixed-type inhibition of human tissue kallikrein-2 expressed in baculovirus infected insect cells using Abz-KLRSSQ-EDDnp as substrate assessed as substrate Km at 4 uM by Lineweaver-Burk plot analysis

[5] = substrate: O=C1CC(c2ccc(O)c(O)c2)Oc2c1c(O)cc(O)c2[C@@H]1C(=O)c2c(O)cc(O)cc2O[C@H]1c1ccc(O)cc1; details: Homo sapiens; 2 uM; remark: listed apart in the source
Description: Mixed-type inhibition of human tissue kallikrein-2 expressed in baculovirus infected insect cells using Abz-KLRSSQ-EDDnp as substrate assessed as substrate Km at 2 uM by Lineweaver-Burk plot analysis

[6] = substrate: O=C1CC(c2ccc(O)c(O)c2)Oc2c1c(O)cc(O)c2[C@@H]1C(=O)c2c(O)cc(O)cc2O[C@H]1c1ccc(O)cc1; details: Homo sapiens; 8 uM; remark: listed apart in the source
[7] = substrate: O=C1CC(c2ccc(O)c(O)c2)Oc2c1c(O)cc(O)c2[C@@H]1C(=O)c2c(O)cc(O)cc2O[C@H]1c1ccc(O)cc1; details: Homo sapiens; 4 uM; remark: listed apart in the source
[8] = substrate: O=C1CC(c2ccc(O)c(O)c2)Oc2c1c(O)cc(O)c2[C@@H]1C(=O)c2c(O)cc(O)cc2O[C@H]1c1ccc(O)cc1; details: Homo sapiens; 10 uM; remark: listed apart in the source

B1: Kallikrein-2 (Homo sapiens), P20151 (protein)
chain: MWDLVLSIALSVGCTGAVPLIQSRIVGGWECEKHSQPWQVAVYSHGWAHCGGVLVHPQWVLTAAHCLKKNSQVWLGRHNLFEPEDTGQRVPVSHSFPHPLYNMSLLKHQSLRPDEDSSHDLMLLRLSEPAKITDVVKVLGLPTQEPALGTTCYASGWGSIEPEEFLRPRSLQCVSLHLLSNDMCARAYSEKVTEFMLCAGLWTGGKDTCGGDSGGPLVCNGVLQGITSWGPEPCALPEKPAVYTKVVHYRKWIKDTIAANP
With B1 the Km [1] was 1.04 µM, the Km [2] was 1.2 µM and the Vmax [3] was 192 µM/s. The Km [4] was 0.81 µM, the Km [5] was 0.72 µM and the Vmax [6] was 110 µM/s. It also gave a Vmax [7] of 144 µM/s and a Vmax [8] of 79 µM/s.
